Assay results: PMC10105715

Biological target: non-natural gp130:IL-11R:LIFR cytokine receptor complex on Ba/F3-gp130:IL-11R:LIFR cells (UniProt P40189)
Sequence (P40189 23-918, chain 1 of 3): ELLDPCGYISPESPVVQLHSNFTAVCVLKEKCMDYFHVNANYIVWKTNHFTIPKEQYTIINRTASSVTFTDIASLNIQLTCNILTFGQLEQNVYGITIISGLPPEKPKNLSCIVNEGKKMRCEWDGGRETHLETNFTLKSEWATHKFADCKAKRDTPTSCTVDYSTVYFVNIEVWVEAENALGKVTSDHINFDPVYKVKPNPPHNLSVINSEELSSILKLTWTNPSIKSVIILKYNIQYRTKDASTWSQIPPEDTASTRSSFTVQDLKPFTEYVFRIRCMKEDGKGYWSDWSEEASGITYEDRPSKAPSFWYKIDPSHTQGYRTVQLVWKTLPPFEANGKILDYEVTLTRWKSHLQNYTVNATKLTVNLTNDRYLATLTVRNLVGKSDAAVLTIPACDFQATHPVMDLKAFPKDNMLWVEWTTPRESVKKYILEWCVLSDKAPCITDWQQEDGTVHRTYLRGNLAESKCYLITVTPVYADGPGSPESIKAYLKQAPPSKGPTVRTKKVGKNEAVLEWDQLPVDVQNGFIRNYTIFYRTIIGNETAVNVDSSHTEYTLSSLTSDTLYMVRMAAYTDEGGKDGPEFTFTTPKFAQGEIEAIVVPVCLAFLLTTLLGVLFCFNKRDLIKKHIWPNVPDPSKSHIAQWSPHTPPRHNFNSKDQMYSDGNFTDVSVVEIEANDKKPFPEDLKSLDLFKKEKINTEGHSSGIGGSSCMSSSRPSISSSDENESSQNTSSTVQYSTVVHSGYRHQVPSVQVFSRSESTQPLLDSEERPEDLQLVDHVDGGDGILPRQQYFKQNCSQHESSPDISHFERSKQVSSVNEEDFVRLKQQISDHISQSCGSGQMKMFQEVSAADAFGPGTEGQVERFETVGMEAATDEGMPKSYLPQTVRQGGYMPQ
Sequence (Q14626 23-422, chain 2 of 3, further chain): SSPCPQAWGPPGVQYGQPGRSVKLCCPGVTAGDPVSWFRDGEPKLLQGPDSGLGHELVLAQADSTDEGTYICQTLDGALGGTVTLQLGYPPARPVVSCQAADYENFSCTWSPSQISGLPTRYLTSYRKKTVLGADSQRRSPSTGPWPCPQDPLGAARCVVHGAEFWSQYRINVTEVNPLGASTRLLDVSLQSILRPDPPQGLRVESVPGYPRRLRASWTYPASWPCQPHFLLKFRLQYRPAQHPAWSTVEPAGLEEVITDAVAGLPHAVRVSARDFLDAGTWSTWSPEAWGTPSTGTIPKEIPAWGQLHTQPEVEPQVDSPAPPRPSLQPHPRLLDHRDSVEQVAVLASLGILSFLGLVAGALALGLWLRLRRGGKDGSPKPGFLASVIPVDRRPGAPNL
Sequence (P42702 45-1097, chain 3 of 3, further chain): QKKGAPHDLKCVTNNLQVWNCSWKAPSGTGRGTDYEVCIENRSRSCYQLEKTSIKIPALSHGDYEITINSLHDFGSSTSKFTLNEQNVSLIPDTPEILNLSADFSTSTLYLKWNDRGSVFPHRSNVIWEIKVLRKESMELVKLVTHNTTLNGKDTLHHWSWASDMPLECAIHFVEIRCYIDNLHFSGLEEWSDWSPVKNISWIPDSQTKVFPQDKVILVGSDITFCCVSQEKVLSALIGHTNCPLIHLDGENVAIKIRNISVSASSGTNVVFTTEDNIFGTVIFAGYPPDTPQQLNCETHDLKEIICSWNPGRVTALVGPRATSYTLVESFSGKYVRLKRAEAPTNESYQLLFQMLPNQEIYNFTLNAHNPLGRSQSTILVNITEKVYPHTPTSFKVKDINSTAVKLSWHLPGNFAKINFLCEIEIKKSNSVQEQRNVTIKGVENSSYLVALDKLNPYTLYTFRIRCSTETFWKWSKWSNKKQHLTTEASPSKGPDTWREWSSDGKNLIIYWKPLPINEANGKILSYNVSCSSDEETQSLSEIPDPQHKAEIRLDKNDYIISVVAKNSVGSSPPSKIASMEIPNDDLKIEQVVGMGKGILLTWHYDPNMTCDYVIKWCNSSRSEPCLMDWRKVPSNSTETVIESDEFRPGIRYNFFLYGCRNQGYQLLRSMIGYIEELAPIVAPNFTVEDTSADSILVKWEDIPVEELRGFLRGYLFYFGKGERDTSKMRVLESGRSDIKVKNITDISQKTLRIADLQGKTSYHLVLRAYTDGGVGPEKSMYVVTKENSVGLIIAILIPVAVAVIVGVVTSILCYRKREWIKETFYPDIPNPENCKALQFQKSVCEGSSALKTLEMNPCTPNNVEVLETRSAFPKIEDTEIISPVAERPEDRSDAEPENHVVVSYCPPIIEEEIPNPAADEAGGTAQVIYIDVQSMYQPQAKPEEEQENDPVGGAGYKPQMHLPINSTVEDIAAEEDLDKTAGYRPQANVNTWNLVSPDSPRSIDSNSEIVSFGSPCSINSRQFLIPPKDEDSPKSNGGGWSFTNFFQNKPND

## cytokimera GIL-11 (from UniProt P20809 22-57; P15018 64-88; P20809 73-110; P15018 119-138; P20809 129-161; P15018 172-189; P20809 180-199) (ligand)
  proliferation of Ba/F3-gp130:IL-11R:LIFR cells (CellTiter Blue), GIL-11 0.0005–500 ng/ml; EC50: 1.44 ng/mL
